Each binder was assayed against human glucagon receptor (human, UniProt P47871 26-477) (assay: cell-based or functional assay).

Binder	cAMP EC50 (1.0% HSA) [µM]
YXEGTXTSDXSIXLDXKAQXEFIXXLIEGGKSSGAPPPS (Aib2, αMeF(2F)6, 4Pal10, αMeL13, Orn16, Aib20, D-Glu24, αMeY25; acylated K17, K31 (groups as in name); C-terminal amide) [Y-Aib-EGT-αMeF(2F)-TSD-4Pal-SI-αMeL-LD-Orn-K((2-[2-(2-Amino-ethoxy)-ethoxy]-acetyl)2-(γ-Glu)-(4-(4-tert-butylphenyl)butanoyl))AQ-Aib-EFI-(D-Glu)-αMeY-LIEGGK((2- …, listing 1 of 6 here]	> 9.95
YXEGTXTSDXSIXLDXKAQXEFIXXLIEGGKSSGAPPPS (Aib2, αMeF(2F)6, 4Pal10, αMeL13, Orn16, Aib20, D-Glu24, αMeY25; acylated K17, K31 (groups as in name); C-terminal amide) [Y-Aib-EGT-αMeF(2F)-TSD-4Pal-SI-αMeL-LD-Orn-K((2-[2-(2-Amino-ethoxy)-ethoxy]-acetyl)2-(γ-Glu)-CO-(CH2)14-CH3)AQ-Aib-EFI-(D-Glu)-αMeY-LIEGGK((2-[2-(2-Amino-ethoxy …, listing 2 of 6 here]	> 9.95
YXEGTXTSDXSIXLDXKAQXEFIXXLIEGGKSSGAPPPS (Aib2, αMeF(2F)6, 4Pal10, αMeL13, Orn16, Aib20, D-Glu24, αMeY25; acylated K17, K31 (groups as in name); C-terminal amide) [Y-Aib-EGT-αMeF(2F)-TSD-4Pal-SI-αMeL-LD-Orn-K((2-[2-(2-Amino-ethoxy)-ethoxy]-acetyl)2-(10-(4-carboxyphenoxy)decanoyl))AQ-Aib-EFI-(D-Glu)-αMeY-LIEGGK((2-[2-(2-Ami …, listing 3 of 6 here]	> 9.95
YXEGTXTSDXSIXLDXKAQXEFIXXLIEGGKSSGAPPPS (Aib2, αMeF(2F)6, 4Pal10, αMeL13, Orn16, Aib20, D-Glu24, αMeY25; acylated K17, K31 (groups as in name); C-terminal amide) [Y-Aib-EGT-αMeF(2F)-TSD-4Pal-SI-αMeL-LD-Orn-K((2-[2-(2-Amino-ethoxy)-ethoxy]-acetyl)2-(γ-Glu)-CO-(CH2)10-CO2H)AQ-Aib-EFI-(D-Glu)-αMeY-LIEGGK((2-[2-(2-Amino-ethox …, listing 4 of 6 here]	> 9.95
YXEGTXTSDKSIXLDXKAQXEFIXXLIEGGPSSGAPPPS (Aib2, αMeF(2F)6, αMeL13, Orn16, Aib20, D-Glu24, αMeY25; acylated K10, K17 (groups as in name); C-terminal amide)	> 9.95
YXEGTXTSDXSIXLDXKAQXEFIXXLIEGGKSSGAPPPS (Aib2, αMeF(2F)6, 4Pal10, αMeL13, Orn16, Aib20, D-Glu24, αMeY25; acylated K17, K31 (groups as in name); C-terminal amide) [Y-Aib-EGT-αMeF(2F)-TSD-4Pal-SI-αMeL-LD-Orn-K((2-[2-(2-Amino-ethoxy)-ethoxy]-acetyl)2-CO-(CH2)12-CO2H)AQ-Aib-EFI-(D-Glu)-αMeY-LIEGGK((2-[2-(2-Amino-ethoxy)-ethox …, listing 5 of 6 here]	> 9.95
YXEGTXTSDXSIXLDXKAQXEFIKXLIEGGPSSGAPPPS (Aib2, αMeF(2F)6, 4Pal10, αMeL13, Orn16, Aib20, αMeY25; acylated K17, K24 (groups as in name); C-terminal amide)	> 9.95
YXEGTXTSDXSIXLDXKAQXEFIXXLIKGGPSSGAPPPS (Aib2, αMeF(2F)6, 4Pal10, αMeL13, Orn16, Aib20, D-Glu24, αMeY25; acylated K17, K28 (groups as in name); C-terminal amide)	> 9.95
YXEGTXTSDXSIXLDXKAQXEFIXXLIEGGKSSGAPPPS (Aib2, αMeF(2F)6, 4Pal10, αMeL13, Orn16, Aib20, D-Glu24, αMeY25; acylated K17, K31 (groups as in name); C-terminal amide) [Y-Aib-EGT-αMeF(2F)-TSD-4Pal-SI-αMeL-LD-Orn-K((2-[2-(2-Amino-ethoxy)-ethoxy]-acetyl)3-(γ-Glu)-CO-(CH2)14-CH3)AQ-Aib-EFI-(D-Glu)-αMeY-LIEGGK((2-[2-(2-Amino-ethoxy …, listing 6 of 6 here]	> 9.95
